Test results published in patent US20240124890A1.

Target: activated human plasma kallikrein (Enzyme Research Laboratories) (human) (UniProt P03952)
Test: cell-based or functional assay

Chain of UniProt P03952 (P03952 20-638 limits assumed): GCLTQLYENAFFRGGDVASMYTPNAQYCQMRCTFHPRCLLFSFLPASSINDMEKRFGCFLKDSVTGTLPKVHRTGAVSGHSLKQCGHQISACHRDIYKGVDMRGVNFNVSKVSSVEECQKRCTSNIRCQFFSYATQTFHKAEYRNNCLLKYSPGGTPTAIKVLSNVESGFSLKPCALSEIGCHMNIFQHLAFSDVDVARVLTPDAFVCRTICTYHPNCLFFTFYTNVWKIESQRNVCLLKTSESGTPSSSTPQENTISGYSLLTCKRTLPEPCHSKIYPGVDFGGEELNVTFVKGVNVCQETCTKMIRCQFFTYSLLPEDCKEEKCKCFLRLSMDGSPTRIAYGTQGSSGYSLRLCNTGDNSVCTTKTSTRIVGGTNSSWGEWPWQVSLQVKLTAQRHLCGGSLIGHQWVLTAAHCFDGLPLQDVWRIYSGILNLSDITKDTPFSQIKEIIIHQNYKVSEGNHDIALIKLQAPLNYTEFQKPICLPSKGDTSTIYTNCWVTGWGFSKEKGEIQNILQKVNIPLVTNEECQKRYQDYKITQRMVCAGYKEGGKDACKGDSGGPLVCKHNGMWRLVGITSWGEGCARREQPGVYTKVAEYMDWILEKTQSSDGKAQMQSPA

Therapeutic antibody (GenScript), human anti-pKal antibody (lanadelumab)
suppression of pKal activity (PFR-AMC fluorogenic kinetic enzymatic assay): 0.1 nM
